Results as given in publication PMC10923007.

Columns and labels:
[1] = target: ^GSTCAND1 from insect cells (UniProt Q86VP6); test: pull-down
[2] = target: ^GSTCAND1 from bacterial cells (UniProt Q86VP6); test: pull-down
[3] = target: CUL2^AMCA•RBX1 preassembled with VBC (UniProt Q13617); test: FRET or BRET

RBX1•^StrepIICUL2^FL, sequence (Q13617 whole entry): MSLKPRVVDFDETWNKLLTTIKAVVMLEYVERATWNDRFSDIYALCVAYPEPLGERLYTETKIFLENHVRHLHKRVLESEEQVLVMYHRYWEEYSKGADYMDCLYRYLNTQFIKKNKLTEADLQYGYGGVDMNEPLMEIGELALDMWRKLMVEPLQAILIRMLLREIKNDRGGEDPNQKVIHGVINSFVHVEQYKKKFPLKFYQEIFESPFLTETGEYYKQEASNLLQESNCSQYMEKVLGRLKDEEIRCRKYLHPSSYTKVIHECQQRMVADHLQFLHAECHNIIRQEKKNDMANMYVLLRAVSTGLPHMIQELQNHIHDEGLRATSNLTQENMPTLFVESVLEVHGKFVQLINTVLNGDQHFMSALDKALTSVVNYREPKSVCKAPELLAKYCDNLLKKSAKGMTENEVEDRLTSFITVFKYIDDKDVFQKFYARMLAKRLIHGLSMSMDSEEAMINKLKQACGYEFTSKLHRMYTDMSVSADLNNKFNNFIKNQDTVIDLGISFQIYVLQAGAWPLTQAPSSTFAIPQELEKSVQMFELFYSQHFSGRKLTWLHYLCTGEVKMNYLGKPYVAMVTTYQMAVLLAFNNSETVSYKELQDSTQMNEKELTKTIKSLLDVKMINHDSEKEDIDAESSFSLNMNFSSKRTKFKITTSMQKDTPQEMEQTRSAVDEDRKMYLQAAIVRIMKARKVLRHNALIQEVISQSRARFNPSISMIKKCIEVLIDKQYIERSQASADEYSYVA
RBX1•^StrepIICUL2^FL, sequence (P62877 whole entry): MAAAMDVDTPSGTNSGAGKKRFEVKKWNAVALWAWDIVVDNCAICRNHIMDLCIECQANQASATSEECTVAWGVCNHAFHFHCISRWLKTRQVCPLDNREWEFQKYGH
^GSTCAND1 from bacterial cells, sequence (Q86VP6 whole entry): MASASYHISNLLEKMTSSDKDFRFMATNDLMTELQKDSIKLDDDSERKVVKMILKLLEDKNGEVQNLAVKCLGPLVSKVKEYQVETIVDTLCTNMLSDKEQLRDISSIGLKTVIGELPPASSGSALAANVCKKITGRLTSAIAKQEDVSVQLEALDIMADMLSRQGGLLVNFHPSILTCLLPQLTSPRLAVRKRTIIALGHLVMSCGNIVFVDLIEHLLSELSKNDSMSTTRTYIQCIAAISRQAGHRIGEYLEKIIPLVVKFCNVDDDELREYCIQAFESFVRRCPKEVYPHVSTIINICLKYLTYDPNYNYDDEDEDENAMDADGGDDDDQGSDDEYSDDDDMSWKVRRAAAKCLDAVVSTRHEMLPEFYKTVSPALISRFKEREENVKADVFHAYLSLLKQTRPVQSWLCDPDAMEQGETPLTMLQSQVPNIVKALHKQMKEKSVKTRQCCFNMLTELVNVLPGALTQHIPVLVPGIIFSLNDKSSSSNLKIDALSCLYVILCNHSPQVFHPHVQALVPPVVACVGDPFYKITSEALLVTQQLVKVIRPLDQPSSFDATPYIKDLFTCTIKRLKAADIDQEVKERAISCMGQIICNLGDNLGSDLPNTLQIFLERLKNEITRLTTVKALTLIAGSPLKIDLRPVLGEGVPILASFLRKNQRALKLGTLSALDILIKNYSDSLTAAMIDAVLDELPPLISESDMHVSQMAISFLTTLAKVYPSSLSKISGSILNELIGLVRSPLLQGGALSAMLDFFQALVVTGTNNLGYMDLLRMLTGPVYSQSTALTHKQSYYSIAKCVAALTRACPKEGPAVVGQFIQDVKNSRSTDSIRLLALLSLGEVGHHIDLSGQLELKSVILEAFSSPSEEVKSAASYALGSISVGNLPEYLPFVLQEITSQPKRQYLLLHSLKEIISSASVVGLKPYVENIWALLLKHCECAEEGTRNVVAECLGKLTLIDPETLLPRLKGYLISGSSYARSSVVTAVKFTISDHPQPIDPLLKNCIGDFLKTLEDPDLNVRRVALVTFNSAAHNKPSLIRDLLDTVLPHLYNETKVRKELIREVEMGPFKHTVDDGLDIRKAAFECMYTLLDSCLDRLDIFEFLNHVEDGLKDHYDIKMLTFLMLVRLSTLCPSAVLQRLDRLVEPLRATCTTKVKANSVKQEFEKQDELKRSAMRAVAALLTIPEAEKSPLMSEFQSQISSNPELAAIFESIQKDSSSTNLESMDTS
^FlAsHCAND1 from insect cells, sequence (Q86VP6 whole entry): as above
^GSTCAND1 from insect cells, sequence (Q86VP6 whole entry): as above

t1/2 of dissociation [1] [min]	t1/2 of dissociation [2] [min]	kon [3] [M⁻¹ s⁻¹]	Substance
16	3.5		RBX1•^StrepIICUL2^FL (from UniProt Q13617 1-745; P62877 1-108) (complex)
		9.8e+07	^FlAsHCAND1 from insect cells (from UniProt Q86VP6 1-1230) (natural protein)
